Experiment [1] deals with BG505 SOSIP.664 gp140 trimer (HIV-1 (BG505)). The experiment can be described thus: AUC; sedimentation velocity, 20°C, 40,000 rpm, detection at 280 nm, 0.5 mg/mL in formulation buffer (20 mM Tris, 100 mM NaCl pH 7.5); continuous c(s) distribution; also after 0, 1 and 5 freeze-thaw cycles.
For experiment [2], the target named is BG505 SOSIP.v4.1-GT1.1 gp140 trimer (HIV-1 (BG505)). Described as above.

The term stoichiometry N denotes the number of molecules, sites or subunits per partner or assembly. BG505 SOSIP.664 gp140 trimer (complex): the stoichiometry N in experiment [1] is 3.

As for “BG505 SOSIP.v4.1-GT1.1 gp140 trimer (complex)”, in experiment [2], the stoichiometry N is 3.

The values above are taken from publication PMC6595180.
